The data set is described as follows: soluble on expression in E. coli; label from the status in PepcDB or PDB records.
On to “MGSDKIHHHHHHMALMFPRLARNFVKNGYFPTDEPTLERALNALMPSDGSMCILDPCAGEGVAIAEAAHALGREQVKAFAVEFDAERARHARGLVDHCLHADLMDAMISKQSFGLLWLNPPYGDLSKDVNGNIGYQGQGRARLEKLFYQRSLSLLQYGGVLVFIVPGYVLDAELVGWLTRHYTDLRIYRAVETQFKQVVIFGRRVRQREQAPDGVKAVRNLLLQVGLGEVEAEELPSDWPFLPYIVPASPAEPEHFFRVTMEPEQFADEVGRLQGLWPSLDTHLGAAQQSLRPPARALSHWHLALALAAGAISGVVRSKTGRVLVVKGDTHKDKTLQREFTEREDGSIAETRILTDKFVPVIRAWDMTPSSATRGEVLTIR”, for which the “soluble on expression in E. coli” value is “not soluble”.

As for “GPGSMSTSEGNAANRFAGRVKQAEDPFVKALRIKVNGLKRNMKDLEFAKKEVVCETARLESIRDTNPDRVKQQENVIAEAQMMIPHSENRVRAAIKDLQDFLDTHENDAEEGELMQDARTTLESAQLTLSKQ”, the “soluble on expression in E. coli” value is reported as “soluble”. The entry for “MSLRLKIGSPVFFKQVRPGLHGKPFTLYKFRTMTDERDSKGNLLPDEVRLTKTGRLIRKLSIDELPQLLNVLKGDLSLVGPRPLLMDYLPLYTEKQARRHEVKPGITGWAQINGRNAISWEKKFELDVWYVDNWSFFLDLKILCLTVRKVLVSEGIQQTNHVTAERFTGSGDVSSEGHHHHHH” is “not soluble”; for “MGSDKIHHHHHHMYRTAIEELHRWKAKRNKKPLIIRGARQVGKTWLMKEFGRVAFAKTVYISLDNNRRMKELFSADLDVERIVTGLELYSGQKIDPANTLLIFDEVQEVPTALTSLKYFNENAPQYQIISAGSLLGVALHQGTSFPVGKVEFLDLYPLSFTEFLNAMDKGRYVELLQKGDFDMIATFKQTYVDMLKYYYYVGGMPEVVQSFSETKDFGEVREIQQRILDAYEQDFSKHAPHDVVPRIRMLWNSIPAQLTKENKKFIYGLIKEGARAKEYEQSMLWLTDCGLVHKVHRVNAPSLPLKAYEDLKAFKLFLVDIGLLSCMVRLNQGTLLDGNELFKEFKGALTEQYVLQQLRTLKELEAYYWTNDRGSAEIDFVVDDGHKVIPIEVKAETNLKAKSLKMYQEKFRPELSIRASMADYRRENRLLNLPLYMVEMMGLLLKEAE” it is “not soluble”; for “MSLEKTKLPWDEFFSLNKDINHTYFTPEDFSGDEDLIAKTTEQFVKQEIVPQMENIEQHNYKVSRQLFEKAGELGLLGIEVPEDYGGFELGKAVSGLVAEKMGYAGAFSVSFNIHAGVGTLPYIYYGTKEQKEKYLPKIASGEWIGAYALTEPNAGSDALSAKTSAVLNEEGTAWKLNGEKQWITNAHMADVYVVFAKTNKGMTAFIVERTCEGVSIGLEEKKMGIKGSSTATLILEDVVIPAENVLGEVGKGHHVALNILNFARLKLAFGNIGTAKQAIGLSVQYGKERKQFQTELVDFTMIQEKIANMIIATYGAESAAYRTAGVIDEAIHESDEDLMKKMSQFAIECALNKVNASETLAYIVDEAVQIHGGYGYMQEYEVERLYRDARISRIFEGTNEINRLTVAKMLMKQIEQLEDTEVESDVANVERNHRYILLAKKLLKQSLKTLSKTPGLKIDQEQEYSRVISNMLTDVYVMESAFLRTRKAVSKNGEEKERTKQLITDVICEEGYRKVEEAAISVLSAAVTEEQDRHVILAEIRQLLVPLYTNVFTKKREIAKAIINRGKYIVEGHHHHHH” it is “soluble”.

As for “MGSDKIHHHHHHMFSKIEFKNFMSFSNLTFDLLNRGKCKDIIAIYGENGSGKTNIVEAFKLLVLSLQSMESLNENTRLQSLLKEQTNKEENQKTNFGDISEILDKISFFTTFKGIAKNTHRIASEGNTILKYYFNIEKDNGYYLLEYNENNELVKEELVFKIKSNKGVHFSITNIDGLSQSLNKTIFKNTIFKDLTEQIEKYWGKHTFLSIFNNYCLEVNEEFINEQVSINFQKVVDEFDKIFIWSGNFRGPFHSTELLLKDISKGKIDKSEKEKLSYTEEIIYKYFSALYIDIKDVKYKQDAQGQEIKYELMIRKNIGGDLLDVPISLESQGTKNLLDLLKVFNNVLDGKICIVDEIDSGIHDLLMNSILNDLKGSVNGQLIFTTHDTTLLKELSPSSAYFLNVDIKGNKVIISGNEADKKIGVNNNLEKLYLSGFFGAVPDPLDIDFSDLFLDHNLSED”, the “soluble on expression in E. coli” value is given as “not soluble”. The entry for “MNMPHKFNQYNKSIPVNKHVIELLENDPSLLPSDIAKQLSISEVEVVKSLPKEMVTMVSGLKTQEILEGLVGFGDVTTIVHSFGSIFEVKAPFPKGKIAHGYYNLMGREGQLHGHLKLDLIQDIALISKPFRGTESHYFGFFNHDGHSVFKIYLGRDKKRQLIPEQVEAFNVLKQEYKLEHHHHHH” is “soluble”; for “AHHHHHHGSLHLKEKLKGTTTVGLVCKEGVVLAADTRASLGNIIYAKNVTKIHKIDEHLAIAGAGDVGDILNLVRLLKAEANLYKSTVGKEMSVKALATLLANILNGSKYFPYLGWFLVGGYDEKPRLFSVDMVGGITEDNYAAAGSGMEFAYSILDSEYREEMSVNDGIKLAVKAINVAIKRDVFTGDGLLVVTITKDGYKEYRGAELEKMLK” it is “not soluble”. In the case of “MSLIYSSENDYSILEDKTATGKKRDWKGKKRRTNLMAEHYEALESKIGAPYYGKKAEKLISCAEYLSFKRDPETGKLKLYQAHFCKVRLCPMCAWRRSLKIAYHNKLIVEEANRQYGCGWIFLTLTIRNVKGERLKPQISAMMEGFRKLFQYKKVKTSVLGFFRALEITKNHEEDTYHPHFHVLIPVRKNYFGKNYIKQAEWTSLWKKAMKLDYTPIVDIRRVKGKAKIDAEQIENDVRNAMMEQKAVLEISKYPVKDTDVVRGNKVTEDNLNTVLYLDDALAARRLIGYGGILKEIHKELNLGDAEDGDLVKIEEEDDEVANGAFEVMAYWHPGIKNYIIKEGHHHHHH”, the “soluble on expression in E. coli” value is “soluble”.

In the case of “MTGYPDVAAFDLDYTIWPCYCDTHLHGPFKPVKSSNGEVLTIICRDGYELTIYKDIPRILGDLKDNGVKLMTASRTWAPEIAQEILKIFKVKYAGVVTPLANLFDEFQWGERSKIGHLRDGLKDLYNTSDLKSKKICLFDDESRNKEVEKYGVKFVYVRDPENGPSWKLYQDYLSGKV”, the “soluble on expression in E. coli” value is on record as “not soluble”. On to “GSHMASPTPAPSQSPIRRDAFSIIEAEEYNSTNSSTLQVIGTPNNGRGIGYIENGNTVTYSNIDFGSGATGFSATVATEVNTSIQIRSDSPTGTLLGTLYVSSTGSWNTYNTVSTNISKITGVHDIVLVFSGPVNVDNFIFSRSS”, for which the “soluble on expression in E. coli” value is on record as “soluble”. The entry for “MGSDKIHHHHHHMKIAIITFFDNGNYGSELQTLAMNDYLNAKGHVTVFCKVKSSNKIIRAIELLYDKVLLKWYKITDKEKRQYLTDRAKNLSSQRNIPPKLRQYIHSFVNSHISFGCISRLLLFRKERFDAYICGSDQIWSALKMPLLPLNFLYGIDKKKKIAYAPSIGLDNPPYYYIREVEKYVKDFIYLSVREEDAKNVLKKQYGIEAMQVLDPTLLQGKGFWDSLLAIESKQVPTKPYVFCYFLGKLNEDIVTCINRIANGKCVMVLPYEEDCDLIKNGKYELADPLDFVNLIKHADYVLTDSFHGSIFSILYDKQFVVTKRTHVRRVSQTSRITSLLKIFNLQSQYCSGVDEIINALQNNIDYSFTHIQLEEEQRKSRLFLDGALNEIEKNIKS” is “not soluble”. For the sequence “MEFLKLSEGKTKEVYAYDDSHVLLKFKDSITAGDGARKDILEGKGILNAQTSAFLFRLLESKGIETHYIGMFDERTMIAKKLKMIPVEVVLRNIATGSIVKRLPIKEGEVFEPPIIEFFLKDDERHDPMLNYYHMEYLKLMTRKEAEKIEEIMLKVNEILYPFFRSKKLLLYDFKLEFGRVNDKLIIGDELTLDSMRIREEGSGRILDKDLYRKGADLETVKKAYEEFFKRISE”, the “soluble on expression in E. coli” value is given as “soluble”. The entry for “GPGSMASTSGPASLEEAALASLGNYSPEQLQMAETALRAVLMEKVQALAAEHGDAFIQSLVQKEIARTRKMETELANVKKRLGVQERCVDSMRMDVRKVKAQEEKSKYICQNLQETARRREQLTEKMQPEMEAYRSDVRERVSENVQSIWAECEKRRERVETVEAEVTELEAGLAHKKETFERSFAEFQDGLKGRTAEYQELIVAYQEATKEVELIEAQLMLVRRERQSVETTRAALQQQLEVYEKQFDGFAEAVMKPEDVEALAKRQHDQAQMRITELEAEKTNVHQQRLQMDKELTDLRAKHASLKREMQQLEKAKTAAEKKCRQAQQSRQEKK” is “not soluble”; for “MNSKSAQGLAGLRNLGNTCFMNSILQCLSNTRELRDYCLQRLYMRDLHHGSNAHTALVEEFAKLIQTIWTSSPNDVVSPSEFKTQIQRYAPRFVGYNQQDAQEFLRFLLDGLHNEVNRVTLRPKSNPENLDHLPDDEKGRQMWRKYLEREDSRIGDLFVGQLKSSLTCTDCGYCSTVFDPFWDLSLPIAKRGYPEVTLMDCMRLFTKEDVLDGDEKPTCCRCRGRKRCIKKFSIQRFPKILVLHLKRFSESRIRTSKLTTFVNFPLRDLDLREFASENTNHAVYNLYAVSNHSGTTMGGHYTAYCRSPGTGEWHTFNDSSVTPMSSSQVRTSDAYLLFYELASPPSRMAAALEHHHHHH” it is “soluble”. The entry for “GASKAFYSAGDKLFQPGDDAVASMQTYSVAQFLQPFTLNPAKASSDYLGKWVKVRGVIVDIRRKSGIAGSYYFIVTMRDEQNKTDKRLTFNFGSHNSADVEALSNGSVATIVGQVHQVQDSTIPTLQNPKVVK” is “soluble”. “MLISLIVPIYNVEGFLPRCLDSIIKQEYQNLEIVLVNDGSTDQSGLICDQYAEKDERFIVFHKENGGVSSARNVGLNKANGNYIGFVDPDDWIEPNMINKLYELIIQHKADIAMCGYVKEDINGLLISRPVELSTKILNKEDTLNSILNPNDFRGFLCNKLFSVDLFRKKNLYLDEDIHFCEDLLFCCQAILESKQIVYDSTPYYHYIIHNNNASKSNFSFKKLTALNSLDNIINLLNDQKGIELEQYKNYYMHLNISLLMNGIHEDKIRRQDKERLKKNLYKFKINDLTSKFVKFSCVLARLNLNLYYFIWKNAKPSN”: the “soluble on expression in E. coli” value was “not soluble”. The entry for “KKVVFFGVGAVGATFAEQFFNSKYDFKILCDNERKKRYLEEGFIINGKRYDFDYVTKDEYKQEADFIIIGLKYNNLKENIKELDGLVGKNTVIMSLLNGVDSEEIIGERFGIEKMVYSYVTNIDAKKINNNIIHTTNGIIVFGNKDNSEDRKTNIITEVFDDVNIEYTLSKDIQRDMWWKYMVNI” is “not soluble”; for “ALSGSSGYKFGVLAKIVNYMKTRHQRGDTHPLTLDEILDETQHLDIGLKQKQWLMTEALVNNPKIEVIDGKYAFKPKYNVR” it is “soluble”; for “MGSDKIHHHHHHMTTTYPDFLGNSSLQTDTEHWEMEGGAQEVSVTYVLDTSVLLSDPLSLTRFAEHDVVLPIVVITELEAKRHHPDLGFFARQALRMLDELREIHGDLSKPLPIGDEGGHIHVELNHQNTGSLPVGFRLGDNDTRILAVAKNLQEEGHNVVLVSKDLPMRIKASASGIAAQEYRAALARDRGYTGMTHANITDDQLSELYDTGEVRIEELEKLPVNHGFTLKSNSGSALGRMNSDKIIELVPGDQQVFGISGRSAEQRVAIDLLNDDAVGIVSIGGPAGTGKSALALCAGLEAVMERRIQRKIIVFRPLFAVGGQELGYLPGDQEEKMGPWAQAVFDTLSSMVSQNIIDEALSRGLIEVLPLTHIRGRSLHDAFVIVDEAQSLERNVLLTMLSRIGQNSRVVLTHDVAQRDNLRVGRYDGIVSVVEALKDHELFGHITLQRSERSRIAELVTQVLDAPSL” it is “not soluble”.

The values above are taken from the DeepSol protein solubility set.
